What was measured:
Conditions in all cases: protein: recombinant; tags: N-His6;C-myc; label: 32P guide strand; 2 nt 3' overhangs
TRBP-WT = target: T1, TRBP-WT (human, UniProt Q15633 1-366); assay: EMSA; complex 1 (monomer); EMSA: 20 mM Tris pH 7.5, 150 mM NaCl, 2 mM EDTA, 1 mM 2-mercaptoethanol, 1 mM DTT, 50 ng/ul salmon sperm DNA, 0.4 U/ul RNasin, 0.5 nM 32P-siRNA, 30 min on ice
T1 sequence: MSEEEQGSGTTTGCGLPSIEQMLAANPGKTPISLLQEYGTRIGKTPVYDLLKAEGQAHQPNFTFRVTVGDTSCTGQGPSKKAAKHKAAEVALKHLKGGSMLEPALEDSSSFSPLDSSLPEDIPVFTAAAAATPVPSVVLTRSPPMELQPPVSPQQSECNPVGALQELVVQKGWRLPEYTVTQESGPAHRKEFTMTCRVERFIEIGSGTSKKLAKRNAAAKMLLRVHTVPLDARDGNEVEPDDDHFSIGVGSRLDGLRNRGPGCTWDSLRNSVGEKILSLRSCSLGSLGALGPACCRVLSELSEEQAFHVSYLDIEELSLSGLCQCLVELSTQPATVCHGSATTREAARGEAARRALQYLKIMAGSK

TRBP-ΔdsRBD3 = target: T2, TRBP-ΔdsRBD3 (human, UniProt Q15633 1-292); assay: EMSA; complex 1; EMSA: 20 mM Tris pH 7.5, 150 mM NaCl, 2 mM EDTA, 1 mM 2-mercaptoethanol, 1 mM DTT, 50 ng/ul salmon sperm DNA, 0.4 U/ul RNasin, 0.5 nM 32P-siRNA, 30 min on ice
T2 sequence: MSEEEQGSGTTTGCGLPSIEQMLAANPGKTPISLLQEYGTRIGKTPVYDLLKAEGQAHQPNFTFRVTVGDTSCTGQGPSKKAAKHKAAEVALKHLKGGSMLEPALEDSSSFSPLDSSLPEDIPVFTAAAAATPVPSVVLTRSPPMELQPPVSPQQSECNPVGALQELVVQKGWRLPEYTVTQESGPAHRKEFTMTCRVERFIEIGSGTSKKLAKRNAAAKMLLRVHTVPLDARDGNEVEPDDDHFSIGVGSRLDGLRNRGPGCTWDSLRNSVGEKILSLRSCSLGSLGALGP

TRBP-dsRBDmt1+2 = target: T3, TRBP-dsRBDmt1+2 (human, UniProt Q15633 1-366, K80A;K81A;K210A;K211A); assay: EMSA; virtually no binding; Kd ND; EMSA: 20 mM Tris pH 7.5, 150 mM NaCl, 2 mM EDTA, 1 mM 2-mercaptoethanol, 1 mM DTT, 50 ng/ul salmon sperm DNA, 0.4 U/ul RNasin, 0.5 nM 32P-siRNA, 30 min on ice
T3 sequence: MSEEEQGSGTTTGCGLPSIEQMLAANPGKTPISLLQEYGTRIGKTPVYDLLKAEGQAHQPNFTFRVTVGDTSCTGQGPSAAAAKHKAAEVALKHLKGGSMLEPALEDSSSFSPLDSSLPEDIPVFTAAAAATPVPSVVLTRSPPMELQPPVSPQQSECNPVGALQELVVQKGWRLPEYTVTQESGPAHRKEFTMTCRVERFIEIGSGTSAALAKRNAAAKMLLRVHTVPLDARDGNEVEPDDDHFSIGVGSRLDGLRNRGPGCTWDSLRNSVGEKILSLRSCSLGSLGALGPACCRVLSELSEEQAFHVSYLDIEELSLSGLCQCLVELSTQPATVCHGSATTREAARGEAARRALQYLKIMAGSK

TRBP-dsRBDmt2 = target: T4, TRBP-dsRBDmt2 (human, UniProt Q15633 1-366, K210A;K211A); assay: EMSA; single-step complex; EMSA: 20 mM Tris pH 7.5, 150 mM NaCl, 2 mM EDTA, 1 mM 2-mercaptoethanol, 1 mM DTT, 50 ng/ul salmon sperm DNA, 0.4 U/ul RNasin, 0.5 nM 32P-siRNA, 30 min on ice
T4 sequence: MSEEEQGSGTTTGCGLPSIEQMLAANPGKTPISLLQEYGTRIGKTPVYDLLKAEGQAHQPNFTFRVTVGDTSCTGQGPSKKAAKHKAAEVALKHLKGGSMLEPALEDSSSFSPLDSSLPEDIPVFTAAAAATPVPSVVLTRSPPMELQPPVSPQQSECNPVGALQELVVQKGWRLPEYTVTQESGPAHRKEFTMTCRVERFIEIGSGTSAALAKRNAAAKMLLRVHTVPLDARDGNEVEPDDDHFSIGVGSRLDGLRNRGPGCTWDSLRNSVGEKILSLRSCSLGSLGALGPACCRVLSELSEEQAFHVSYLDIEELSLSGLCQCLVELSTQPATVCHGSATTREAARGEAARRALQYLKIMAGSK

TRBP-dsRBDmt1 = target: T5, TRBP-dsRBDmt1 (human, UniProt Q15633 1-366, K80A;K81A); assay: as above
T5 sequence: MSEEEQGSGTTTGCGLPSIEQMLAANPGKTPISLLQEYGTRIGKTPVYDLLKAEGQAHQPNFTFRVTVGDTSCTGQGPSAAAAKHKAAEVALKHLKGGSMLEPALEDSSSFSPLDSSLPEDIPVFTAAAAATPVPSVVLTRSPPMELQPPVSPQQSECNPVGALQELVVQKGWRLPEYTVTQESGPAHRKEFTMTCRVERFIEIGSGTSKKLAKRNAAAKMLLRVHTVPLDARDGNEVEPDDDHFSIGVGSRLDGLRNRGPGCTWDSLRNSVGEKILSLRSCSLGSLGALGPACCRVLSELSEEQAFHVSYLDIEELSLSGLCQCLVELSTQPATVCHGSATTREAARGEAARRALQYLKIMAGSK

B1: siLuc2-153 (dsRNA)
RNA 1: UCGAAGUAUUCCGCGUACGUG
RNA 2: CGUACGCGGAAUACUUCGAUU
TRBP-WT
  Kd: 4 nM
TRBP-ΔdsRBD3
  Kd: 12 nM
TRBP-dsRBDmt1+2
  binding result: no binding
TRBP-dsRBDmt2
  Kd: 520 nM
TRBP-dsRBDmt1
  Kd: 260 nM
